Common to all, as to experiment: SPR (Biacore T200), 100 nM mAb on NGF chip, similarity to parent mAb
One experiment deals with T1, canine NGF (canine, UniProt Q29074 110-229 (pig entry), limits assumed).
T1 construct: The protein was secreted from CHO cells and purified; also called cNGF; canine β-NGF
T1 chain: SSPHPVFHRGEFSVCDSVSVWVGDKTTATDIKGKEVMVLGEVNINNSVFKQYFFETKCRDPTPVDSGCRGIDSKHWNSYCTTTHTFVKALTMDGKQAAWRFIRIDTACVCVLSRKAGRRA
The source says:
(§1) The region of an antibody responsible for antigen recognition represents the paratope. A paratope is created by a combination of amino acids in the complementarity determining regions (CDRs) of both the heavy and light chain variable regions. The binding between antibody and antigen is often mediated by side chains of CDR residues with side chains or carbohydrate moieties of the antigen. To help define critical side chains involved in antibody recognition alanine scanning mutagenesis was performed on each CDR residue in both the heavy and light chain, the technique as described by Cunningham and Wells (1989) Science, Vol. 244, Issue 4908, pp. 1081-1085. These mutants were then individually tested for the ability to NGF using the Biacore. […] Values were then compared to the wild type antibodies and are represented in the tables as a percent of wild type binding. The data presented in Tables 4 and 5 below are shown as a “percent similarity score” compared to wild type.
(§2) The mean response unit of four replicates of the parent mAb+/−3 standard deviations was used to generate parameters to define a threshold of response units comprising both the on- and off-rates antibody binding. The percentage of data points for each mutant fell within this threshold was then used to define a “% similarity score”. […] Results from substitution of alanine at each CDR position

The target in the next experiment is T2, rat NGF (rat, UniProt P25427 122-241).
T2 construct: also called rN
Source text: as §1, §2

The target in the next experiment is T3, human NGF (human, UniProt P01138 122-241).
T3 construct: also called human Nerve Growth Factor; hN
T3 chain: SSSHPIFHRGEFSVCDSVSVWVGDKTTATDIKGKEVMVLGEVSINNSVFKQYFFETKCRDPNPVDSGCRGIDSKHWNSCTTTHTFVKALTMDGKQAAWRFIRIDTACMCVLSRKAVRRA
Source text: as §1, §2

The results in this text go back to patent publication US20210221899A1 (published 2021).

T2 sequence (P25427 122-241 limits assumed): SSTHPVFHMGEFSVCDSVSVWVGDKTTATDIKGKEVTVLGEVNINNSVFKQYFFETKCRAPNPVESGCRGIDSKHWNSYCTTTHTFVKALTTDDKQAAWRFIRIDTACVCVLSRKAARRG

B1: can48L2VH_F113A (antibody, V domains shown)
VH: EVQLVESGGDLVKPGGSLRLSCVASGFTFSTYGINWVRQAPGKGLQWVAYISSGGSSTYYADPVKGRFTISRDDAKNMLYLQMNSLRAEDTAIYYCAGSRYTYAYGGGYEFHAWGQGTLVTVSS
VL: QAVLNQPASVSGALGQKVTISCSGSTMDIDIFGVSWYQQLPGKAPKLLVDSDGDRPSGIPDRFSGSRSGNSGTLTITGLQAEDEADYHCQSGDSTLGALAIFGGGTHVTVL
notes: CDR scanning mutant of ZTS-842 (48L2)
With B1, the “Percent Similarity Score (KD on cN)” value with canine NGF worked out at 33.7%. Further, in the experiment with rat NGF, the “Percent Similarity Score (KD on rN)” value came to 32.2%. Besides, the “Percent Similarity Score (KD on hN)” value in the experiment with human NGF is 98.5%.

B2: can9L12VL_I29A (antibody, V domains shown)
VH: EVQLVESGGDLVKPGGSLRLSCVASGFTFSSHGMHWVRQSPGKGLQWVAVINSGGSSTYYTDAVKGRFTISRDNAKNTVYLQMNSLRAEDTAMYYCAKESVGGWEQLVGPHFDYWGQGTLVIVSS
VL: QSVLTQPTSVSGSLGQRVTISCSGSTNNAGILGASWYQLFPGKAPKLLVYGNGNRPSGVPDRFSGADSGDSVTLTITGLQAEDEADYYCQSFDTTLGAHVFGGGTHLTVL
In the case of B2, the “Percent Similarity Score (KD on cN)” value with canine NGF is 4.4%. In addition, the “Percent Similarity Score (KD on rN)” value in the experiment with rat NGF is 1.6%. Moreover, in the experiment with human NGF, the “Percent Similarity Score (KD on hN)” value came out at 1.5%.

B3: can9L12VL_N27A (antibody, V domains shown)
VH: EVQLVESGGDLVKPGGSLRLSCVASGFTFSSHGMHWVRQSPGKGLQWVAVINSGGSSTYYTDAVKGRFTISRDNAKNTVYLQMNSLRAEDTAMYYCAKESVGGWEQLVGPHFDYWGQGTLVIVSS
VL: QSVLTQPTSVSGSLGQRVTISCSGSTANIGILGASWYQLFPGKAPKLLVYGNGNRPSGVPDRFSGADSGDSVTLTITGLQAEDEADYYCQSFDTTLGAHVFGGGTHLTVL
With B3, the “Percent Similarity Score (KD on cN)” value in the experiment with canine NGF turned out to be 100%. The “Percent Similarity Score (KD on rN)” value with rat NGF was 99.9%. The “Percent Similarity Score (KD on hN)” value with human NGF turned out to be 100%.

B4: can9L12VL_I31A (antibody, V domains shown)
VH: EVQLVESGGDLVKPGGSLRLSCVASGFTFSSHGMHWVRQSPGKGLQWVAVINSGGSSTYYTDAVKGRFTISRDNAKNTVYLQMNSLRAEDTAMYYCAKESVGGWEQLVGPHFDYWGQGTLVIVSS
VL: QSVLTQPTSVSGSLGQRVTISCSGSTNNIGALGASWYQLFPGKAPKLLVYGNGNRPSGVPDRFSGADSGDSVTLTITGLQAEDEADYYCQSFDTTLGAHVFGGGTHLTVL
Regarding B4, the “Percent Similarity Score (KD on cN)” value with canine NGF turned out to be 41.2%. The “Percent Similarity Score (KD on rN)” value with rat NGF turned out to be 12.6%. Moreover, the “Percent Similarity Score (KD on hN)” value with human NGF amounted to 11.4%.

B5: can9L12VL_L32A (antibody, V domains shown)
VH: EVQLVESGGDLVKPGGSLRLSCVASGFTFSSHGMHWVRQSPGKGLQWVAVINSGGSSTYYTDAVKGRFTISRDNAKNTVYLQMNSLRAEDTAMYYCAKESVGGWEQLVGPHFDYWGQGTLVIVSS
VL: QSVLTQPTSVSGSLGQRVTISCSGSTNNIGIAGASWYQLFPGKAPKLLVYGNGNRPSGVPDRFSGADSGDSVTLTITGLQAEDEADYYCQSFDTTLGAHVFGGGTHLTVL
In the case of B5, the “Percent Similarity Score (KD on cN)” value with canine NGF was 4.4%. The “Percent Similarity Score (KD on rN)” value with rat NGF turned out to be 1.7%. The “Percent Similarity Score (KD on hN)” value with human NGF is 1.5%.

B6: can9L12VL_N28A (antibody, V domains shown)
VH: EVQLVESGGDLVKPGGSLRLSCVASGFTFSSHGMHWVRQSPGKGLQWVAVINSGGSSTYYTDAVKGRFTISRDNAKNTVYLQMNSLRAEDTAMYYCAKESVGGWEQLVGPHFDYWGQGTLVIVSS
VL: QSVLTQPTSVSGSLGQRVTISCSGSTNAIGILGASWYQLFPGKAPKLLVYGNGNRPSGVPDRFSGADSGDSVTLTITGLQAEDEADYYCQSFDTTLGAHVFGGGTHLTVL
As to B6, in the experiment with canine NGF, the “Percent Similarity Score (KD on cN)” value turned out to be 6.6%. The “Percent Similarity Score (KD on rN)” value with rat NGF is 2.5%. Moreover, the “Percent Similarity Score (KD on hN)” value with human NGF was 2.1%.

B7: can9L12VL_L96A (antibody, V domains shown)
VH: EVQLVESGGDLVKPGGSLRLSCVASGFTFSSHGMHWVRQSPGKGLQWVAVINSGGSSTYYTDAVKGRFTISRDNAKNTVYLQMNSLRAEDTAMYYCAKESVGGWEQLVGPHFDYWGQGTLVIVSS
VL: QSVLTQPTSVSGSLGQRVTISCSGSTNNIGILGASWYQLFPGKAPKLLVYGNGNRPSGVPDRFSGADSGDSVTLTITGLQAEDEADYYCQSFDTTAGAHVFGGGTHLTVL
Regarding B7, the “Percent Similarity Score (KD on cN)” value with canine NGF was 97%. The “Percent Similarity Score (KD on rN)” value in the experiment with rat NGF came to 37%. Moreover, the “Percent Similarity Score (KD on hN)” value with human NGF came to 34.2%.

B8: can9L12VL_V100A (antibody, V domains shown)
VH: EVQLVESGGDLVKPGGSLRLSCVASGFTFSSHGMHWVRQSPGKGLQWVAVINSGGSSTYYTDAVKGRFTISRDNAKNTVYLQMNSLRAEDTAMYYCAKESVGGWEQLVGPHFDYWGQGTLVIVSS
VL: QSVLTQPTSVSGSLGQRVTISCSGSTNNIGILGASWYQLFPGKAPKLLVYGNGNRPSGVPDRFSGADSGDSVTLTITGLQAEDEADYYCQSFDTTLGAHAFGGGTHLTVL
Take B8: in the experiment with canine NGF, the “Percent Similarity Score (KD on cN)” value came to 58.2%. In addition, the “Percent Similarity Score (KD on rN)” value with rat NGF was found to be 20.2%. The “Percent Similarity Score (KD on hN)” value with human NGF is 15.7%.

B9: can9L12VL_O90A (antibody, V domains shown)
VH: EVQLVESGGDLVKPGGSLRLSCVASGFTFSSHGMHWVRQSPGKGLQWVAVINSGGSSTYYTDAVKGRFTISRDNAKNTVYLQMNSLRAEDTAMYYCAKESVGGWEQLVGPHFDYWGQGTLVIVSS
VL: QSVLTQPTSVSGSLGQRVTISCSGSTNNIGILGASWYQLFPGKAPKLLVYGNGNRPSGVPDRFSGADSGDSVTLTITGLQAEDEADYYCASFDTTLGAHVFGGGTHLTVL
With B9, the “Percent Similarity Score (KD on cN)” value with canine NGF amounted to 79.2%. Moreover, the “Percent Similarity Score (KD on rN)” value in the experiment with rat NGF was 24.2%. Also, in the experiment with human NGF, the “Percent Similarity Score (KD on hN)” value amounted to 19.3%.

B10: can9L12VL_N52A (antibody, V domains shown)
VH: EVQLVESGGDLVKPGGSLRLSCVASGFTFSSHGMHWVRQSPGKGLQWVAVINSGGSSTYYTDAVKGRFTISRDNAKNTVYLQMNSLRAEDTAMYYCAKESVGGWEQLVGPHFDYWGQGTLVIVSS
VL: QSVLTQPTSVSGSLGQRVTISCSGSTNNIGILGASWYQLFPGKAPKLLVYGAGNRPSGVPDRFSGADSGDSVTLTITGLQAEDEADYYCQSFDTTLGAHVFGGGTHLTVL
Regarding B10, the “Percent Similarity Score (KD on cN)” value with canine NGF stood at 100%. Besides, the “Percent Similarity Score (KD on rN)” value in the experiment with rat NGF worked out at 100%. For the same molecule, the “Percent Similarity Score (KD on hN)” value with human NGF worked out at 100%.

B11: can9L12VL_T26A (antibody, V domains shown)
VH: EVQLVESGGDLVKPGGSLRLSCVASGFTFSSHGMHWVRQSPGKGLQWVAVINSGGSSTYYTDAVKGRFTISRDNAKNTVYLQMNSLRAEDTAMYYCAKESVGGWEQLVGPHFDYWGQGTLVIVSS
VL: QSVLTQPTSVSGSLGQRVTISCSGSANNIGILGASWYQLFPGKAPKLLVYGNGNRPSGVPDRFSGADSGDSVTLTITGLQAEDEADYYCQSFDTTLGAHVFGGGTHLTVL
In the case of B11, in the experiment with canine NGF, the “Percent Similarity Score (KD on cN)” value came to 100%. Further, in the experiment with rat NGF, the “Percent Similarity Score (KD on rN)” value came out at 99.2%. In addition, in the experiment with human NGF, the “Percent Similarity Score (KD on hN)” value worked out at 100%.

B12: can9L12VL_T95A (antibody, V domains shown)
VH: EVQLVESGGDLVKPGGSLRLSCVASGFTFSSHGMHWVRQSPGKGLQWVAVINSGGSSTYYTDAVKGRFTISRDNAKNTVYLQMNSLRAEDTAMYYCAKESVGGWEQLVGPHFDYWGQGTLVIVSS
VL: QSVLTQPTSVSGSLGQRVTISCSGSTNNIGILGASWYQLFPGKAPKLLVYGNGNRPSGVPDRFSGADSGDSVTLTITGLQAEDEADYYCQSFDTALGAHVFGGGTHLTVL
On to B12, for which the “Percent Similarity Score (KD on cN)” value with canine NGF was 100%. In the experiment with rat NGF, the “Percent Similarity Score (KD on rN)” value stood at 99.9%. The “Percent Similarity Score (KD on hN)” value with human NGF came out at 100%.

B13: can9L12VL_T94A (antibody, V domains shown)
VH: EVQLVESGGDLVKPGGSLRLSCVASGFTFSSHGMHWVRQSPGKGLQWVAVINSGGSSTYYTDAVKGRFTISRDNAKNTVYLQMNSLRAEDTAMYYCAKESVGGWEQLVGPHFDYWGQGTLVIVSS
VL: QSVLTQPTSVSGSLGQRVTISCSGSTNNIGILGASWYQLFPGKAPKLLVYGNGNRPSGVPDRFSGADSGDSVTLTITGLQAEDEADYYCQSFDATLGAHVFGGGTHLTVL
On to B13, for which the “Percent Similarity Score (KD on cN)” value with canine NGF was found to be 100%. For the same molecule, the “Percent Similarity Score (KD on rN)” value in the experiment with rat NGF turned out to be 40%. Further, the “Percent Similarity Score (KD on hN)” value with human NGF stood at 52.5%.

B14: can9L12VL_S91A (antibody, V domains shown)
VH: EVQLVESGGDLVKPGGSLRLSCVASGFTFSSHGMHWVRQSPGKGLQWVAVINSGGSSTYYTDAVKGRFTISRDNAKNTVYLQMNSLRAEDTAMYYCAKESVGGWEQLVGPHFDYWGQGTLVIVSS
VL: QSVLTQPTSVSGSLGQRVTISCSGSTNNIGILGASWYQLFPGKAPKLLVYGNGNRPSGVPDRFSGADSGDSVTLTITGLQAEDEADYYCQAFDTTLGAHVFGGGTHLTVL
B14: the “Percent Similarity Score (KD on cN)” value with canine NGF was determined as 39.3%. The “Percent Similarity Score (KD on rN)” value with rat NGF worked out at 14.5%. Also, in the experiment with human NGF, the “Percent Similarity Score (KD on hN)” value is 11.6%.
